{"source": "paper PMC6391071", "about": "“Mechanisms of opening and closing of the bacterial replicative helicase” (eLife, 2018)", "binders": {"B1": {"name": "ori-lambda DUE 43-mer (ssDNA)", "DNA": "TGACGAATAATCTTTTCTTTTTTCTTTTGTAATAGTGTCTTTT"}, "B2": {"name": "Aquifex aeolicus DnaC helicase loader (natural protein, UniProt O67056 1-235, looked up)", "chain": "MQDTATCSICQGTGFVKTEDNKVRLCECRFKKRDVNRELNIPKRYWNANLDTYHPKNVSQNRALLTIRVFVHNFNPEEGKGLTFVGSPGVGKTHLAVATLKAIYEKKGIRGYFFDTKDLIFRLKHLMDEGKDTKFLKTVLNSPVLVLDDLGSERLSDWQRELISYIITYRYNNLKSTIITTNYSLQREEESSVRISADLASRLGENVVSKIYEMNELLVIKGSDLRKSKKLSTPS", "notes": "Aquifex aeolicus DnaC helicase loader; Six copies stand in the complex with the DnaB hexamer; also called AA DnaC; A. aeolicus DnaC; source: E. coli Rosetta (pET24a-AA-DnaC); cells co-lysed with cells expressing AA DnaB; purified as the BC complex (65°C step, heparin sepharose, Q-sepharose, Superdex-200)"}, "B3": {"name": "T25 (ssDNA)", "DNA": "TTTTTTTTTTTTTTTTTTTTTTTTT"}, "B4": {"name": "bacteriophage λP helicase loader (natural protein, UniProt P03689 1-233, looked up)", "chain": "MKNIAAQMVNFDREQMRRIANNMPEQYDEKPQVQQVAQIINGVFSQLLATFPASLANRDQNEVNEIRRQWVLAFRENGITTMEQVNAGMRVARRQNRPFLPSPGQFVAWCREEASVTAGLPNVSELVDMVYEYCRKRGLYPDAESYPWKSNAHYWLVTNLYQNMRANALTDAELRRKAADELVHMTARINRGEAIPEPVKQLPVMGGRPLNRAQALAKIAEIKAKFGLKGASV", "notes": "bacteriophage λ replication protein P (helicase loader), full length, 233 residues, 26,518 Da, untagged; Five copies stand in the predominant complex with the DnaB hexamer; The 6BBM model of λP has no side chains and covers about residues 109-233; also called lambdaP; LP; source: E. coli BL21(DE3), co-expressed with DnaB (pCDFDuet-λP); purified as the BP complex (ammonium sulfate, Q-sepharose, …)"}, "B5": {"name": "Aquifex aeolicus DnaB helicase (enzyme)", "chain": "LPCDESAERAVLGSMLEDPENIPLVLEYLKEEDFCIDEHKLLFRVLTNLWSEYGNKLDFVLIKDHLEKKNLLQKIPIDWLEELYEEAVSPDTLEEVCKIVKQRSAQRAIIQLGIELIHKGKENKDFHTLIEEAQSRIFSIAESATSTQFYHVKDVAEEVIELIYKFKSSDRLVTGLPSGFTELDLKTTGFHPGDLIILAARPGMGKTAFMLSIIYNLAKDEGKPSAVFSLEMSKEQLVMRLLSMMSEVPLFKIRSGSISNEDLKKLEASAIELAKYDIYLDDTPALTTTDLRIRARKLRKEKEVEFVAVDYLQLLRPPVRKSSRQEEVAEVSRNLKALAKELHIPVMALAQLSREVEKRSDKRPQLADLRESGQIEQDADLILFLHRPEYYKKKPNPEEQGIAEVIIAKQRQGPTDIVKLAFIKEYTKFANLEA", "notes": "Aquifex aeolicus DnaB replicative helicase; also called AA DnaB; A. aeolicus DnaB; source: E. coli Rosetta (pET24a-AA-DnaB); cells co-lysed with cells expressing AA DnaC; purified as the BC complex (65°C step, heparin sepharose, Q-sepharose, Superdex-200)"}, "B6": {"name": "T45 (ssDNA)", "DNA": "TTTTTTTTTTTTTTTTTTTTTTTTTTTTTTTTTTTTTTTTTTTTT"}, "B7": {"name": "T35 (ssDNA)", "DNA": "TTTTTTTTTTTTTTTTTTTTTTTTTTTTTTTTTTT"}}, "key": {"[1]": {"target": "T1, DnaB replicative helicase;lambda P helicase loader (Escherichia coli;bacteriophage lambda, UniProt P0ACB0;P03689 1-471;1-233, |)", "T1 sequence (P0ACB0 whole entry, one chain of several)": "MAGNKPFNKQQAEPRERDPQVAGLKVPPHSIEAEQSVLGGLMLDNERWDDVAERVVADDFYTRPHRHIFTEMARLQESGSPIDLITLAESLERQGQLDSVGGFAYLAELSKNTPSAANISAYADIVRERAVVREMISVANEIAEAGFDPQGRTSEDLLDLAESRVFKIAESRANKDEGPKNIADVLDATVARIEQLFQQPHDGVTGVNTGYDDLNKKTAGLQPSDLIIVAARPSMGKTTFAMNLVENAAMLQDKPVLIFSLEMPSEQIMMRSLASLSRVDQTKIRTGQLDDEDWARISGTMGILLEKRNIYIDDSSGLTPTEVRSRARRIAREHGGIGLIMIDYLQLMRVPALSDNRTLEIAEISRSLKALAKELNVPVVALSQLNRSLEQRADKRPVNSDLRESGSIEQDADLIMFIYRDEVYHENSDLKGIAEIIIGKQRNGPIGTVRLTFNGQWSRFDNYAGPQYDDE", "assay": "native MS; B6P5 with one ssDNA, 459.5 kDa; no nucleotide bound; 450 mM ammonium acetate pH 7.5, 0.5 mM magnesium acetate, 0.01% Tween-20; 5 uM protein, protein:ssDNA 1:1.2, 30 min on ice", "conditions": "protein: recombinant;recombinant; tags: untagged;; chain copies: 6;5; single strand"}, "[2]": {"target": "B5", "assay": "native MS; co-purified complex at 5 µM, buffer-exchanged into 450 mM ammonium acetate pH 7.5, 0.5 mM magnesium acetate, 0.01% Tween-20; no ssDNA", "conditions": "both partners purified"}, "[3]": {"target": "T1, DnaB replicative helicase;lambda P …", "assay": "native MS; no protein-DNA complex; 450 mM ammonium acetate pH 7.5, 0.5 mM magnesium acetate, 0.01% Tween-20; 5 uM protein, protein:ssDNA 1:1.2, 30 min on ice", "conditions": "protein: recombinant;recombinant; tags: untagged;; chain copies: 6;5; single strand"}, "[4]": {"target": "T2, Escherichia coli DnaB helicase (Escherichia coli, UniProt P0ACB0 1-471)", "T2 construct": "E. coli DnaB replicative helicase, full length, untagged; Hexamer; The 6BBM model holds residues 17-471 at most; chain A lacks 167-203; also called EcDnaB; E. coli DnaB; source: E. coli BL21(DE3), co-expressed with λP (pET24-DnaB-EC); purified as the BP complex (ammonium sulfate, Q-sepharose, heparin sepharose, methyl HIC)", "T2 sequence (P0ACB0 whole entry, the tested form may be a part)": "as the sequence (P0ACB0 whole entry, one chain of several) above", "assay": "native MS; BP sample in 500 mM ammonium acetate, 0.01% Tween-20, without magnesium acetate", "conditions": "both partners purified"}, "[5]": {"target": "T2, Escherichia coli DnaB helicase", "assay": "native MS; co-purified complex at 5 µM, buffer-exchanged into 450 mM ammonium acetate pH 7.5, 0.5 mM magnesium acetate, 0.01% Tween-20; no ssDNA", "conditions": "both partners purified"}, "[6]": {"target": "T2, Escherichia coli DnaB helicase", "assay": "native MS; BP complex at 5 µM in 450 mM ammonium acetate pH 7.5, 0.5 mM magnesium acetate, 0.01% Tween-20; incubated with the Oriλ-derived 43-mer ssDNA at 1:1.2 for 30 min on ice", "conditions": "both partners purified"}, "[7]": {"target": "the molecule itself", "assay": "native MS; co-purified complex at 5 µM, buffer-exchanged into 450 mM ammonium acetate pH 7.5, 0.5 mM magnesium acetate, 0.01% Tween-20; no ssDNA"}}, "note": "Values joined by “and” are separate entries in the source; they are usually repeats but may differ in a detail not shown here. Equal entries are not always repeated.", "data": [{"binder": "B1", "values": [{"measurement": "binding result", "setting": "[1]", "value": "binds"}]}, {"binder": "B2", "values": [{"measurement": "stoichiometry N", "setting": "[2]", "value": 6, "unit": "DnaC per DnaB hexamer"}]}, {"binder": "B3", "values": [{"measurement": "binding result", "setting": "[3]", "value": "no binding"}]}, {"binder": "B4", "values": [{"measurement": "stoichiometry N", "setting": "[4]", "value": "5 λP per DnaB hexamer and 6 λP per DnaB hexamer and 4 λP per DnaB hexamer"}, {"measurement": "stoichiometry N", "setting": "[5]", "value": "5 λP per DnaB hexamer and 6 λP per DnaB hexamer and 4 λP per DnaB hexamer"}, {"measurement": "stoichiometry N", "setting": "[6]", "value": "5 λP per DnaB hexamer"}]}, {"binder": "B5", "values": [{"measurement": "stoichiometry N", "setting": "[7]", "value": 6, "unit": "subunits"}]}, {"binder": "B6", "values": [{"measurement": "binding result", "setting": "[3]", "value": "no binding"}]}, {"binder": "B7", "values": [{"measurement": "binding result", "setting": "[3]", "value": "no binding"}]}]}
